Laboratory results from PMC3365938.

Target: TolAIII, C-terminal domain of E. coli TolA (residues 302-421) with N-terminal His6 tag (E. coli) (UniProt P19934)
Assay: SPR

Sequence of UniProt P19934 (P19934 302-421): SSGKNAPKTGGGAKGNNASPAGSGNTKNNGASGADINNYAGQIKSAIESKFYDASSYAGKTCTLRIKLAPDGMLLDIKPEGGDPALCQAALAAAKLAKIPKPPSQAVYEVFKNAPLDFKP

TA53-107, residues 53-107 of the translocation domain of colicin A (from UniProt P04480 53-107) (domain or fragment)
Kd: 1340 nM
